Target: monomeric human Fc-fused SARS-CoV-2_RBD-SD1 (UniProt P0DTC2 319-591)
Assay: BLI

B1: VHH3.89 (VHH)
VHH: QVQLQESGGGLVQPGGSLRLSCAASGFTLDYYAIGWFREVPGKEREGLSRIDSSDGSTYYADSVKGRFTISRDNTKNIVYLQMNNLKPEDTAVYYCATDPIIQGRNWYWTGWGQGTQVTVSS
  koff: 0.0002 s⁻¹

Source: US20240101647A1 (published 2024)
